One test deals with MazF(His)6 (Escherichia coli, UniProt P0AE70 1-111). Briefly: tricine SDS-PAGE of the purified complex, densitometry.
The target of another test is T1, MazF (Escherichia coli, UniProt P0AE70 1-111).
T1 sequence: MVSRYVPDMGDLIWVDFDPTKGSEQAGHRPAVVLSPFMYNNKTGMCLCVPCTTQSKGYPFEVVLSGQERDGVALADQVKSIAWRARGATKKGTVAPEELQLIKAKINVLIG
Briefly: native PAGE, second dimension SDS-PAGE, densitometry.

The target of a further test is T2, PemK(His)6 (E. coli (plasmid R100), UniProt P13976 24-133).
T2 construct: also called Kid
Briefly: co-purification on Ni-NTA after co-expression.

B1: MazE (other)
chain: MIHSSVKRWGNSPAVRIPATLMQALNLNIDDEVKIDLVDGKLIIEPVRKEPVFTLAELVNDITPENLHENIDWGEPKDKEVW
notes: also called antitoxin MazE; ChpAI
For the molecule B1, in the test with MazF(His)6, the “ratio of MazF(His)6 to MazE in the complex” value is ~2.

B2: (His)6MazE (other)
chain: B1 chain
notes: also called wild-type (His)6MazE; MazE with N-terminal (His)6 tag
Regarding B2, the “ratio of MazF to (His)6MazE in the complex” value in the test with MazF was ~1.8.

B3: PemI (other)
chain: MHTTRLKRVGGSVMLTVPPALLNALSLGTDNEVGMVIDNGRLIVEPYRRPQYSLAELLAQCDPNAEISAEEREWLDAPATGQEEI
Consider B3, for which the binding result in the test with PemK(His)6 is “binds”.
